± gives the standard error. Variants at the floor of the assay were thinned out.
B1: glmS ribozyme (parent)
chain: AUAAAAGCGCCAGAACUACAGAAAUGUAGUUGACGAGGAGGAGGUUUAUCGAAUUUUCGGCGGAUGCCUCCAAA

Variants of: B1
Test: self-cleavage kobs at 2500 uM GlcN6P; higher = faster cleavage; RNA array
Conditions: with glucosamine-6-phosphate
Procedure, shortened: (§1)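 Weighted Michaelis–Menten fits across concentrations supplied kcat and KM, based on kobs from one- or two-exponential decay fits to normalised per-tile medians. The data came from barcoded ribozyme variants transcribed in situ by E. coli RNA polymerase on sequenced MiSeq chips and tracked at 37 °C by a hybridised Cy3 probe. Glucosamine-6-phosphate (40 μM to 10 mM) in HEPES/KCl/Mg(OAc)2 buffer was flowed in.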
For AUAAAAGCGCCAGAACUACAGAAAUGUAGUUGACGAGGAGGAGGAUUAUCGUAUUUUCGGCGGAUGACUCCAAA [U45A A52U C67A], the “self-cleavage kobs at 2500 uM GlcN6P” value was 8.33e-05 ± 2.5e-05 s⁻¹.
For AUAAAAGCGCCAGAACUACAGAAAUGUAGGUGACGAGAAGGAGGUGUAUCGAAUUUUCGGCGGAUGCCUCCAAA [U30G G38A U46G], the “self-cleavage kobs at 2500 uM GlcN6P” value was under 1e-05 s⁻¹.
In the case of AUAAAAGCGCCAGAACUACAGAAAUGUAGUUGACGAGGAGGUGGCUUAUCGGAUUUUCGGCGGAUGCCUUCAAA [A42U U45C A52G C70U], the “self-cleavage kobs at 2500 uM GlcN6P” value is reported as under 1e-05 s⁻¹.
AUAAAAGCGCCAGAACUACAGAAAUGUAGUUGACGAGUAGUAGGUUUAUGGAAUUUUCGGCGGAUGCGUCCAAA [G38U G41U C50G C68G] was tested, and the “self-cleavage kobs at 2500 uM GlcN6P” value was under 1e-05 s⁻¹.
In the case of AUAAAGGCGCCCGAACUACAGAAAUGUAGUUGACGAGGAGGAGGUUUAUCGAAUUGUCGGCGGAUGCCUCCAAA [A6G A12C U56G], the “self-cleavage kobs at 2500 uM GlcN6P” value is reported as 5.25e-05 ± 2.1e-05 s⁻¹.
For AUAAAAUCGCCAGAACUACAGAAAUGUAGUUGACGAGGAGGAGGUUUAUCGAAUAAUCGGCGGAUGCCUCCAAA [G7U U55A U56A], the “self-cleavage kobs at 2500 uM GlcN6P” value was under 1e-05 s⁻¹.
For AUAAAAGCGCCAGAACUACAGAAAUGUAGUUUACGAGGAGAAGGUUUAUCGAAUUUUUGGCGGAUGCCUCCAAA [G32U G41A C58U], the “self-cleavage kobs at 2500 uM GlcN6P” value was 9.05e-05 ± 2.6e-05 s⁻¹.
With AUAAAAGCGCCAGAACUACAGAAAUGUAGUUGACUAGGAGGAGGCUUAUCCAAUUUUCUGCGGAUGCCUCCAAA [G35U U45C G51C G59U] the “self-cleavage kobs at 2500 uM GlcN6P” value was under 1e-05 s⁻¹.
For AUAAAAGUACCAGAACUACAGAAAUGUAGUUGACGAGGAGGAGGAUUAUCGAAUUUUCGGCGGAUGCCCCCAAA [C8U G9A U45A U69C], the “self-cleavage kobs at 2500 uM GlcN6P” value was under 1e-05 s⁻¹.
In the case of AUAAAAGCGCCAGAACUACAGAAAUGUAGUUGACGACGAGGAGGUUUAUCGAAUAUUCGGCGGGUGCCUCCAAA [G37C U55A A64G], the “self-cleavage kobs at 2500 uM GlcN6P” value is reported as 4.29e-05 ± 1.2e-05 s⁻¹.
With AUAAAAGCGCCAGAACUACAGAAAUGUAAUUGACUAGGAGAAGGUUUAUCGAAUUUUCGGCGGAUGCCUCCAAA [G29A G35U G41A] the “self-cleavage kobs at 2500 uM GlcN6P” value was under 1e-05 s⁻¹.
In the case of AUAAAAGCGCCAGAACUACAGAAAUGUAGUUGACGAGGCGGGGGUUUAUCGUAUUUUCGGCGGAUGCCUCCAAA [A39C A42G A52U], the “self-cleavage kobs at 2500 uM GlcN6P” value is reported as 6.4e-05 ± 1.5e-05 s⁻¹.
In the case of AUAAAUGCGCCAUAACUACAGAAAUGUAGUUGACGAGGAGGAGCUUUAUCGAAUUUUCGGCGGAUGCCUCCAAA [A6U G13U G44C], the “self-cleavage kobs at 2500 uM GlcN6P” value is reported as under 1e-05 s⁻¹.
In the case of AUAAAAGCACCAUAACUACAGAAAUGUAGUUGACGAGGAGGAGGUUUAUCGAAUUUCCGGCGGAUGCCUCCAAA [G9A G13U U57C], the “self-cleavage kobs at 2500 uM GlcN6P” value is reported as under 1e-05 s⁻¹.
With AUAAAAGCACCAGAACUACAGAAAUGUAGUUGACGAGGAGGAGGUUUAUCGAAGUUUCGGCAGAUGCCUCCAAA [G9A U54G G62A] the “self-cleavage kobs at 2500 uM GlcN6P” value was under 1e-05 s⁻¹.
In the case of AUAAAACCGCCAGAUCUACAGAAAUGUAGUCGACGAGGAGGAGGUUUAUCGAAUUUUCGGCGGAUGCCUCCAAA [G7C A15U U31C], the “self-cleavage kobs at 2500 uM GlcN6P” value is reported as under 1e-05 s⁻¹.
With AUAAAAGCGCCAGAACUACAGAAAUGUAGUUGACGAGGAGGUUGUAUAUCGAAUUUUCGGCGGAUGCCUUCAAA [A42U G43U U46A C70U] the “self-cleavage kobs at 2500 uM GlcN6P” value was 6.44e-05 ± 2.4e-05 s⁻¹.
AUAAAAGCGCCAGAACUACAGAAAUGUAGUUUACGAGGAGGAGGUUUAUCGACUAUUCGGCGGAUGCCUCCAAA [G32U A53C U55A] was tested, and the “self-cleavage kobs at 2500 uM GlcN6P” value was 5.38e-05 ± 1.8e-05 s⁻¹.
For AUAAAAGCGCCAGAACUACAGAAAUGUAGAUGACGAGGAGGAGGUUUAUAGAAUUUUCGGCGGAUGCUUCCAAA [U30A C50A C68U], the “self-cleavage kobs at 2500 uM GlcN6P” value was 4.96e-05 ± 2.3e-05 s⁻¹.
With AUAAAAGCGACAGAACUACAGAAAUGUAGUUGACGCGGAGGAGGUUUAUGGAAUUUUCGGCGGAUGCCUCCAAA [C10A A36C C50G] the “self-cleavage kobs at 2500 uM GlcN6P” value was 0.000367 ± 0.00015 s⁻¹.
For AUAAAAGCGCCAGAACUACAGAAAUGUAGUUGACGAGGAGAAGGUUUAUCGAAUUUUCGGCGGAUGCCUACAAA [G41A C70A], the “self-cleavage kobs at 2500 uM GlcN6P” value was 0.000253 ± 5.4e-05 s⁻¹.
In the case of AUAAAAGCGCCAGAAGUACAGAAAUGUAGAUGACGAGGAGGCGGUUUAUCGAAUUUUCGGCGGAUGCCGCCAAA [C16G U30A A42C U69G], the “self-cleavage kobs at 2500 uM GlcN6P” value is reported as 0.000262 ± 6.8e-05 s⁻¹.
In the case of AUAAAAGCUCCAGAACUACAGAAAUGUAUUAGACGAGGAGGAGGUAUAUCGAAUUUUCGGCGGAUGCCUCCAAA [G9U G29U U31A U46A], the “self-cleavage kobs at 2500 uM GlcN6P” value is reported as under 1e-05 s⁻¹.
For AUAAAAGCGCCAGAACUACAGAAAUGUAGUUGACGAGGAGGAGAUUUACCGAAUUUUCGGCUGAUGCCUCCAAA [G44A U49C G62U], the “self-cleavage kobs at 2500 uM GlcN6P” value was under 1e-05 s⁻¹.
In the case of AUAAAAGCGCCAGAACUACAGAAAUGUAGUUAACGAGGAGGAGGUUUAUCGAAUUUCCGGCGGAUGCCUCCAAA [G32A U57C], the “self-cleavage kobs at 2500 uM GlcN6P” value is reported as 5.22e-05 ± 1.9e-05 s⁻¹.
With AUAAAAGCGCCAGAAAUACAGAAAUGUAGUUGACGAUGAGAAGGUUUAUCGAAUUUUCGGCGGAUGCCUCCAAA [C16A G37U G41A] the “self-cleavage kobs at 2500 uM GlcN6P” value was under 1e-05 s⁻¹.
With AUAAAAGCGCCAGAACUACAGAAAUGUAGUUAACGAGGAGGAGGUUAAUCGAAUUUUCGGCGGAUGCCUGCAAA [G32A U47A C70G] the “self-cleavage kobs at 2500 uM GlcN6P” value was 4.84e-05 ± 2.3e-05 s⁻¹.
In the case of AUAAAAGCGCGAGAACUACAGAAAUGUAGUUGACGAGGAGGAGGUGUAUCGAAUUUUCCGCGGAGGCCUCCAAA [C11G U46G G59C U65G], the “self-cleavage kobs at 2500 uM GlcN6P” value is reported as 0.000186 ± 8.3e-05 s⁻¹.
With AUAAAAGCGCCACAAUUACAGAAAUGUAGUUGACGAGGAGGAGGUUUAUCGAAUUUUCGGCGGAUGCCUCUAAA [G13C C16U C71U] the “self-cleavage kobs at 2500 uM GlcN6P” value was 7.64e-05 ± 1.7e-05 s⁻¹.
With AUAAAAGCGCCAGAACUACAGAAAUGUAGUUGACGCGGAGAAGGUUUAUCGAAUUGUCGACGGAUGCUUCCAAA [A36C G41A U56G G60A C68U] the “self-cleavage kobs at 2500 uM GlcN6P” value was under 1e-05 s⁻¹.
With AUAAAAGCGCCCGAAUUACAGAAAUGUAGUUGACGAGGAAGAGGUUUAUCGAAUUUUCGGCGGAUGCCUCCAAA [A12C C16U G40A] the “self-cleavage kobs at 2500 uM GlcN6P” value was 0.00176 ± 0.00038 s⁻¹.

Variants of: B1
Test: self-cleavage kobs at 10000 uM GlcN6P; higher = faster cleavage; RNA array
Conditions: with glucosamine-6-phosphate
Procedure, shortened: as §1
For AUAAAGGCGCCCGAACUACAGAAAUGUAGUUGACGAGGAGGAGGUUUAUCGAAUUGUCGGCGGAUGCCUCCAAA [A6G A12C U56G], the “self-cleavage kobs at 10000 uM GlcN6P” value was 5.92e-05 ± 1.5e-05 s⁻¹.
In the case of AUAAAAGCGCCAGAACUACAGAAAUGUAGUUGACGACGAGGAGGUUUAUCGAAUAUUCGGCGGGUGCCUCCAAA [G37C U55A A64G], the “self-cleavage kobs at 10000 uM GlcN6P” value is reported as 6.99e-05 ± 1.4e-05 s⁻¹.
AUAAAAGCACCAUAACUACAGAAAUGUAGUUGACGAGGAGGAGGUUUAUCGAAUUUCCGGCGGAUGCCUCCAAA [G9A G13U U57C] was tested, and the “self-cleavage kobs at 10000 uM GlcN6P” value was under 1e-05 s⁻¹.
AUAAAAGCGCCAGAACUACAGAAAUGUAGUUGACGAGGAGAAGGUUUAUCGAAUUUUCGGCGGAUGCCUACAAA [G41A C70A] was tested, and the “self-cleavage kobs at 10000 uM GlcN6P” value was 0.00019 ± 2.6e-05 s⁻¹.
In the case of AUAAAAGCGCCACAAUUACAGAAAUGUAGUUGACGAGGAGGAGGUUUAUCGAAUUUUCGGCGGAUGCCUCUAAA [G13C C16U C71U], the “self-cleavage kobs at 10000 uM GlcN6P” value is reported as 0.000169 ± 5.1e-05 s⁻¹.
With AUAAAAGCGCCAGAACUACAGAAAUGUAGUUGACGCGGAGAAGGUUUAUCGAAUUGUCGACGGAUGCUUCCAAA [A36C G41A U56G G60A C68U] the “self-cleavage kobs at 10000 uM GlcN6P” value was under 1e-05 s⁻¹.

Reference: the supplement of paper PMC7125110
